{
  "source": "the DeepSol protein solubility set",
  "data": [
    {"assay": "soluble on expression in E. coli; label from the status in PepcDB or PDB records", "values": [
      {"sequence": "MEGIPGQRDGVYWLPPAEDGKDPATPWWLCSPLHVLAETRDASQSNWGRLLEWRDNDGHPHRWACPVEMLAASDTAEFRRELVRGGLTMSTSQKARQKLVDYVLSHRQAAATRLRCVSRIGWHDVRYVLPGEVHGEQDGEGVIYQGADSGDFDRAGTLQEWQTHIAAAAAGNSRIVFAISVAFAGVLADMAGESGGGFHFVGTTSKGKTSTLLDPAASVWGNPDQFAKKWRTTQNGLEGLCLGRNDNLLILDELAQIAPADAGGAAYLIANGQAKARMTKEGGNRPAHTWRVMLLSAGEIDLAQHMAEAGKSAKGGQIARLPAIPADAGAGMGTLEQLHQHPSGQAFADAMKAYSRQYYGTAGPAFLAALTPPECMDEIRRDIKDGVTGLIEYLGVPAGAAQEVGRVAARFALVAFAGELATRYGVTGWKPGEAVQAARRCFREWLAENHTGMAADDRALFAQVSGFMQTHSSTRFPPHDAAPEVLARYLNRAGFTFIDEQGTQQFWVLSEPFKKELCRGYTPLIAARSLLRAGWLLAGDTEGNTRRHTRKKRIKALDSATVNVYVLTSTVLEGEELEHHHHHH", "soluble on expression in E. coli": "not soluble"},
      {"sequence": "MAPAPEVVSWAEAVEQDNAPHIQEGADGTRTETAFTEVDGVRWKVVTQFKVINKRVPKVVADRKKWVKFGSCKGEPAGPQVATTYVAEEVDMQFTRNRAGEQILDVQEDKQTAKTTSREHCRHCKGNDHWSTHCPYKVMYQLDEEADADKDTEKDRMAMGMRPDGRQIDRNRSDENTCRVTNLPQEMNEDELRDLFGKIGRVIRIFIARDKVTGLPKGFAFVTFESRDDAARAIAELNDIRMYHMVLKVEWTRPSN", "soluble on expression in E. coli": "not soluble"},
      {"sequence": "MGHHHHHHSHMAPKKAKKRAGGANSNVFSMFEQTQIQEFKEAFTIMDQNRDGFIDKNDLRDTFAALGRVNVKNEEIDEMIKEAPGPINFTVFLTMFGEKLKGADPEETILNAFKVFDPEGKGVLKADYVREMLTTQAERFSKEEVDQMFAAFPPDVTGNLDYKNLVHIITHGEEKD", "soluble on expression in E. coli": "soluble"},
      {"sequence": "MAAAGEEYSSDKIEERSLAAIDSMIDPDISGPMRHIVVKAIHAAGDFAIAPLIRYSDGFFKSMLAKLKEGCTIICDSEMVRAGIYSRPVLERNRVVCYLNDVRSKEMADVNGITRSAAGIRIAMQDHRNSVIVIGNAPTALLEAMRMIEENGWYDIPIVGIPVGFINASKAKEGLVSSHIEYISVEGHRGGSPIAASIVNGFGRFLA", "soluble on expression in E. coli": "soluble"},
      {"sequence": "SLKSGCSARQVCAGNTHFAVVTVEKELYTWVNMQGGTKLHGQLGHGDKASYRQPKHVEKLQGKAIHQVSCGDDFTVCVTDEGQLYAFGSDYYGCMGVDKVAGPEVLEPMQLNFFLSNPVEQVSCGDNHVVVLTRNKEVYSWGCGEYGRLGLDSEEDYYTPQKVDVPKALIIVAVQCGCDGTFLLTQSGKVLACGLNEFNKLGLNQCMSGIINHEAYHEVPYTTSFTLAKQLSFYKIRTIAPGKTHTAAIDERGRLLTFGCNKCGQLGVGNYKKRLGINLLGGPLGGKQVIRVSCGDEFTIAATDDNHIFAWGNGGNGRLAMTPTERPHGSDICTSWPRPIFGSLHHVPDLSCRGWHTILIVEKVLNSKTIRSNSSGLSIGTVFQSSS", "soluble on expression in E. coli": "soluble"},
      {"sequence": "MRAHEIEYKLYGDDMQFVEIELDPEESVIAEAGAMMMMEDYIEMETIFGDGSGPSGGLFGKLMGAGKRLVTGESMFMTVFTNTGHGKRHVSFAAPYPGKIIPVDLTEYQGKVVCQKDAFLCAAKGVSLGIEFTKKIGTGFFGGEGFIMQKLEGDGLAFMHAGGTVYKRELKPGEKLRIDTGCLVAMTKDINYDVEFVGKVKTALFGGEGLFFATLEGPGTVWIQSLTLSRLAARLTSPAAQSTGEGSVLGGLGRLLDGKE", "soluble on expression in E. coli": "not soluble"},
      {"sequence": "MGSDKIHHHHHHMNLRRLKYFIKIVDVGSLTQAADILHIAQPALSQQLATLEGEVNQKLLIRTKRGVTPTNAGKILYSHAQAILRQCAQAQSAIDRAGGELSGSVSVGLAPGTAAQQLALPLMAEVQRQYPGIVLYFNENFGTTLSELIMNGRMDMAVIYDNRNIHGLRFIPLMKEPLCFVCPNSLMKPKKEITLAEVAQHNLFLPRIYNIMRKIVDEAFIKEGLTYQVKCEIESQTTLNAVLAAGMGCTIMPDSAARSMLNASNAWMAKIIDPDIYASLSFCMSDHLSLSEPAEVVKNILLSLMADRTPDNRPLTLVS", "soluble on expression in E. coli": "not soluble"},
      {"sequence": "MGSDKIHHHHHHMLKICVIGSSGHFRYALEGLDEECSITGIAPGVPEEDLSKLEKAISEMNIKPKKYNNWWEMLEKEKPDILVINTVFSLNGKILLEALERKIHAFVEKPIATTFEDLEKIRSVYQKVRNEVFFTAMFGIRYRPHFLTAKKLVSEGAVGEIRLVNTQKSYKLGQRPDFYKKRETYGGTIPWVGIHAIDWIHWITGKKFLSVYATHSRLHNSGHGELETTALCHFTLENEVFASLSIDYLRPQGAPTHDDDRMRIVGTRGIVEVINERVFLTDEKGHREVPLVEKGQIFEDFLREIRGQGKCMVTPEDSILTTEIALKARLSADTGQIVLI", "soluble on expression in E. coli": "not soluble"},
      {"sequence": "MSDSKCDSQFYSVQVADSTFTVLKRYQQLKPIGSGAQGIVCAAFDTVLGINVAVKKLSRPFQNQTHAKRAYRELVLLKCVNHKNIISLLNVFTPQKTLEEFQDVYLVMELMDANLCQVIHMELDHERMSYLLYQMLCGIKHLHSAGIIHRDLKPSNIVVKSDCTLKILDFGLARTACTNFMMTPYVVTRYYRAPEVILGMGYKENVDIWSVGCIMGELVKGCVIFQGTDHIDQWNKVIEQLGTPSAEFMKKLQPTVRNYVENRPKYPGIKFEELFPDWIFPSESERDKIKTSQARDLLSKMLVIDPDKRISVDEALRHPYITVWYDPAEAEAPPPQIYDAQLEEREHAIEEWKELIYKEVMDWEERSKNGVVKDQPSDAAVSSNATPSQSSSINDISSMSTEQTLASDTDSSLDASTGPLEGCR", "soluble on expression in E. coli": "soluble"},
      {"sequence": "MANQHANHSINDFKQFVKKHPKLIKEVRKEQRSWQDVYENWVLFGESDPIWDPYREPEEASEAVPETPQKNDFVSKMVTAVKKMDVNQMNEQINKMSQSISSLQSLLNTFSGSGQKHSQPGSGQHPFSFRKDLEHHHHHH", "soluble on expression in E. coli": "soluble"},
      {"sequence": "MLSSINMVKIGLEVHVHLTSLKTKLFCSCPSDYTGKDPNTNVCPICLGLPGAIPVLNENAVKAAIMVALAINAEIANSLIMVRKHYFYPDMAKNYQISQYDGPGSIAISKGGYLKLREGKTVRIRRINIEEDPAKIIYPTGSMLTSKYTLLDYNRSGMGLLEIVTEPDMTEPKEAREFLEKLRSILEHLGVCNCDLEGAMRADANVSVEGGERVEIKNIGSPREVEEALKYEIARQKAAIAQGLPVKRETRHWDSERKVTVPTRTKETEEDYRYFPDPDLPPYPITQDLIEEIRKTLPELPDLRIKRLVTQYGISDYDATVLVMDKALADLFEETAKHYSNYKKLVNLLINDYLRWLNDKNLRPSQSKAGSQHLVELLKLLDDGVITIKIAKEILPEIVLEGKMPSSIIKERGLVAIKDEDYLINVIKEVINEEPDAAEKAKNDPKVINYLVGKVMKKTGKRADPQLTNELIKKILGIK", "soluble on expression in E. coli": "soluble"},
      {"sequence": "MKRLILPIACGICTVTSDAQTDKQPHPNVIFIYADDLGYKDLSCTGSRFYETPHIDKLAREGVCFTQSYAACPVSSPSRAALLTGKYPARINLTDYIPGDRAYGPHKNQRLASLPFNLHLSKDEITMAEAFRQNGYSTFMAGKWHLAESAEYYPEQNGFDINIGGNNTGHPSKGYFSPYGNPQLKDGPEGEYLTDRLTDEVIRYISEPKEKPFFVYLSYYTVHLPLQAKAEKIAKYRRKLSRAVPADSSFVKKGETYHKLVQDIPAYAAMVESLDENIGRLLDTLHRSGLDERTIVVFTSDNGGMATSNTTRNIPTSNLPLRAGKGYLYEGGIKVPAIIRWSGHLKGRQVSDTPIIGTDYYPTLLDLCGLPLLPGQHVDGVSMKPVLQGGRLSRPSLFWHYPHYSGGLGGRPSAAIREGDYKLIEFFEDHHVELYNVIQDESEEKDLSQIYPEIADGLRKKLYLWYKEVGARMPVDNPHYVSPVKDSDSFENKLEHHHHHH", "soluble on expression in E. coli": "not soluble"},
      {"sequence": "MTIHLSSLGQVYLVCGKTDMRQGIDSLAYLVKTHFELDPFSGQVFLFCGGRKDRFKALYWDGQGFWLLYKRFENGKLTWPSTEKDVKALTPEQVDWLMKGFSITPKINLSESRDFY", "soluble on expression in E. coli": "not soluble"},
      {"sequence": "GPGSMDNTEETSRVTDQEERTLTETELPAPAEHVLEGDNSASEENRLHAFLIPLEDGEQFARANLQHRWYRGLTKMLWDEELERNGILIVERGESGRNNQSADEEEEEDDDGTDDCVAKMKREFRIKREQDKIVYEEDSTRTETLREEQNAISLIVTLMEEAMDRSILMNEAETMFALILDVLKPRVHYRYIYAWGVVTCCSFKPLKSEMDRLRPSDRHKPPYMRKSLPTCRVPLEPIYYLPDGGKKMRAMNELNDVRAIGWV", "soluble on expression in E. coli": "not soluble"},
      {"sequence": "MNEQIPHDKSLDNSLTLLKEGYLFIKNRTERYNSDLFQARLLGKNFICMTGAEAAKVFYDTDRFQRQNALPKRVQKSLFGVNAIQGMDGSAHIHRKMLFLSLMTPPHQKRLAELMTEEWKAAVTRWEKADEVVLFEEAKEILCRVACYWAGVPLKETEVKERADDFIDMVDAFGAVGPRHWKGRRARPRAEEWIEVMIEDARAGLLKTTSGTALHEMAFHTQEDGSQLDSRMAAIELINVLRPIVAISYFLVFSALALHEHPKYKEWLRSGNSREREMFVQEVRRYYPFGPFLGALVKKDFVWNNCEFKKGTSVLLDLYGTNHDPRLWDHPDEFRPERFAEREENLFDMIPQGGGHAEKGHRCPGEGITIEVMKASLDFLVHQIEYDVPEQSLHYSLARMPSLPESGFVMSGIRRKS", "soluble on expression in E. coli": "soluble"},
      {"sequence": "MAHHHHHHMFHGFPQVQVVSDDAPTGESIFAKDSDSHVELPPAKKVRISFPALTHLGSFSQDATCHSAVGGRLCGVQQGDTILITSVLPSLGASGDAEDERDDTAESKQQQKMYEKVKEMLRKECLDSYSVGYFIVSSACVNDPYSVVTADRLANLAIDGHPSVLLVYDPFRTGLMGKLYLRAFVPTDAFLDFSRKNKKTKKTDKKSGMQEEARLLRACSVPKQGVLREVKVEVEVDAYQLFCLNGIDIAPLPSNSTVHHSDSMADYKVALLESVQRNLSDLEGKLSRETSRNQRDENNVPPARGVDTMLALVQLREQAQHLEALCDGTLLISSLLRDL", "soluble on expression in E. coli": "not soluble"},
      {"sequence": "SLAQIPRPEIMDEDQLMKEVLDKFVNCHEQTYEEFLSTFTHLSKEDNVAKWGAHGTDSSENIFSTVKWNHKTESNGCHFRNTTIFLHTSSEHSEEDQIVIDEGHKVGSSFQGDMTRAGKVKVDNFLDLEDVDMEEESKPQMNKDCLLLPGEVEQDISTSVPSYDPSVDLPLTSEVRPKPAVGRTQKQTEEILGDEVQPFFLDEEFDYDNVTLTPKFTAGEIATIQELSKQKRVGSGTNVCELHD", "soluble on expression in E. coli": "soluble"},
      {"sequence": "MLNMPAEFEQFHWMVDMVQNVDMGLVVIDRDYNVQVWNGFMTHHSGLQSHEAIGRSIFDIFPEIPPEWFKLKTKPVYDLGCRSFITWRQRPYLFRCRNVRPVTQQAEFMYQNVTLNPMRTPTGKINSLFLSIQDATAEALMSQ", "soluble on expression in E. coli": "not soluble"},
      {"sequence": "MITKLDIQEKDGFLTMKDFPMNCIFNKVKTGCGATTIALTNNENYIITVPTTELIENKCYPTKDADGNVKFWKKHERRAGLSPVVNNLFGLYGNFTLELKKKLKDYLSSVGVKKIICTYDKIDKLMEFINPKDFKLTIDEYHNFLKQYSFRDKAINGVLAHFKEFKSYCFLSATPIPNNLKPAIFNDIPEYIADWNTTDDITVYPYHTDKPYMVAAKFIKTYQAKGCLNVNGIESKEAYFFINSVTEIKAILKQTQLTEDDYRIICADNPKNRRTLEEYTISSSADAPKKFNFITSKSFEGVDFHSETGLCFVVSNVQNRHTLVSIDMDIPQIVGRIRTKSNPFRNKVVHIFNTKATDHYTTFEEMEQIVDKEVKAAQERADMLNNTKLSEAATKQQINEIKKVGIESYLSYQENKFVVNDMVAKLQLYSYYIATVVYQSDKSLRETYAQSGIVTTKGKWHIAPEKFVKELIVKPTFRELHKRYCEIKANPMTFDLQTIDIEHEYPILGRAYRQLGVKELKRLRTIKSIQEALGEA", "soluble on expression in E. coli": "not soluble"}
    ]}
  ]
}
